Test results published in patent US11819552B2, “Antibody-drug conjugates targeting uPARAP” (RIGSHOSPITALET, priority 2016, dated 2023).
Entries after “also recorded” stand apart in the source; their conditions may differ.

Assays:
[1] = test system: human glioblastoma explant cells; assay: In vitro cell viability assay on glioblastoma explant cells; conditions: as FIG. 5 assay; vs aTNP-based control ADCs
Protocol: (§1) Cells tested were seeded at low density (20-25% confluence, generally 5-10×10^3 cells per well) in a 96 well plate in 90 μL of medium, and incubated overnight. […] Cells were incubated for 72 hours, before 20 μL of CellTiter 96 AQueous One Solution Cell Proliferation Assay (MTS, Promega) was added, and incubated for an appropriate time for formation of color (usually 1 hour). The plates were then read at 490 nm, with background subtraction at 630 nm, using a plate reader.
The ADCs 2h9-vc-MMAE and 2h9-vc-MMAF were tested by in vitro cell viability assays, performed as described in Example 1, for their capacity to specifically kill human glioblastoma explant cells. Glioblastoma explant cells are e.g. described in Staberg et al., 2017, Cell Oncol. 40: 21-32.

U937 cells [2] = assay: In vitro cytotoxicity of ADCs, cell viability assay (MTS); format: cell-based; conditions: 72 hours, 4-fold dilutions from 10 μg/mL ADC (mAb component), vs aTNP-vc-MMAE
Protocol: as §1

HT1080 cells [3] = assay: as above; format: cell-based; conditions: 72 hours, 4-fold dilutions from 10 μg/mL ADC, vs aTNP-vc-MMAE
Protocol: as §1

THP-1 cells [4] = assay: as above; format: cell-based; conditions: 72 hours, 4-fold dilutions from 10 μg/mL ADC, vs aTNP-vc-MMAE
Protocol: as §1

[5] = test system: CHO-K1 (receptor-negative cell line); assay: as above; format: cell-based; conditions: 72 hours, 4-fold dilutions from 10 μg/mL ADC
Protocol: as §1

KNS42 cells [6] = assay: as above; format: cell-based; conditions: 72 hours, 4-fold dilutions from 10 μg/mL ADC, vs aTNP-vc-MMAE
Protocol: as §1

U937 xenograft tumour [7] = assay: Subcutaneous uPARAP-positive U937 xenograft tumour model, treatment by s.c. injection; format: in vivo, CB17 SCID mice
Protocol: (§2) All animal experiments were performed under legal approval from The Danish Veterinary and Food Administration. All reagents and cell lines used for animal experiments were tested negative for the presence of murine viruses, bacteria, mycoplasma and fungi. Animals received standard of care, and were sacrificed upon any of the following signs: loss of more than 10% of body weight, visible distress or illness, compromised food—or water intake or defecation, signs of severe inflammation in the vicinity of tumours, or tumour growth which exceeded a volume of 1000 mm^3 or compromised the free movement of the animals. Tumour growth was measured using electronic calipers, and tumour volumes were calculated using the formula Volume=(LxW^2)/2, with L being the longest dimension of the tumour, and W being the width in the perpendicular dimension.
For tumour establishment, mice were shaved at the flank, and received a subcutaneous injection of 1×10^6 U937 cells, and then closely monitored in order to observe the development of solid tumours. […] All treatments were given as a total of 4 subcutaneous doses of 3 mg/kg mAb component in the tumour area, at 4 days intervals. Injections were performed under brief isoflurane anesthesia to avoid risks for the animal handler. During treatment, the tumours were evaluated every two days, until reaching a point of sacrifice. Mice which fully lost any tumour burden were checked two times a week for a period of 3 months after ending treatment.

U937 cells [8] = assay: Cell cycle distribution analysis; format: cell-based; conditions: 3-day incubation, 1 μg/mL ADC
Protocol: (§3) Cell cycle analysis was performed using a Nucleocounter NC-3000 system (ChemoMetec Denmark), using the manufacturers standard protocol for analyzing the cell cycle distribution of a population of cells, based on the DNA content of each cell. The percentage of cells in Sub-G1, G1, S, or G2/M-phases of the cell cycle was established from histogram analysis using the NucleoView NC-3000 software.

HT1080 cells [9] = assay: Cell cycle distribution analysis; format: cell-based; conditions: 3-day incubation, 1 μg/mL ADC
Protocol: as §3

THP-1 cells [10] = assay: Cell cycle distribution analysis; format: cell-based; conditions: 3-day incubation, 1 μg/mL ADC
Protocol: as §3

KNS42 cells [11] = assay: Cell cycle distribution analysis; format: cell-based; conditions: 3-day incubation, 1 μg/mL ADC
Protocol: as §3

[12] = target: T1, recombinant human (rh) Cathepsin B (Homo sapiens, UniProt P07858); assay: Cathepsin B linker cleavage assay (reducing SDS-PAGE); format: biochemical; conditions: incubation with activated rh cathepsin B, 37° C. overnight
T1 construct: purchased
Protocol: Reducing SDS-PAGE was performed by running a 4-12% NuPAGE Bis-Tris SDS-PAGE gel, loading 5 μg of total protein per lane, reduced by boiling for 3 minutes in sample buffer in the presence of 40 mM DTT. The gels were stained using a standard 0.1% coomassie blue stain. For cathepsin B linker cleavage assay, samples were treated with recombinant human (rh) Cathepsin B according to manufacturer's instructions, using 100 ng of activated rhCathepsin B to 20 μg ADC (mAb component), in a 25 mM MES, pH 5.0 buffer, and incubation at 37° C. overnight.

U937 xenograft tumour [13] = assay: Subcutaneous uPARAP-positive U937 xenograft tumour model, treatment by intravenous injection; format: in vivo, CB17 SCID mice
Protocol: as §2
For tumour establishment, mice were shaved at the flank, and received a subcutaneous injection of 1×10^6 U937 cells, and then closely monitored in order to observe the development of solid tumours. […] All treatments were given as a total of 3 intravenous doses of 5 mg/kg mAb component in the tail veins of the mice, at 4 days intervals. During treatment, the tumours were evaluated every two days, until reaching a point of sacrifice. Mice which fully lost any tumour burden were checked two times a week for a period of 3 months after ending treatment.

[14] = target: T2, soluble truncated uPARAP protein containing the first 3 N-terminal domains of human uPARAP (Homo sapiens, UniProt Q9UBG0); assay: ELISA analysis of uPARAP-binding of mAbs; conditions: after reduction step of conjugation, or in ADC form
T2 construct: a soluble truncated uPARAP protein containing the first 3 N-terminal domains of human uPARAP
T2 sequence (Q9UBG0 31-365): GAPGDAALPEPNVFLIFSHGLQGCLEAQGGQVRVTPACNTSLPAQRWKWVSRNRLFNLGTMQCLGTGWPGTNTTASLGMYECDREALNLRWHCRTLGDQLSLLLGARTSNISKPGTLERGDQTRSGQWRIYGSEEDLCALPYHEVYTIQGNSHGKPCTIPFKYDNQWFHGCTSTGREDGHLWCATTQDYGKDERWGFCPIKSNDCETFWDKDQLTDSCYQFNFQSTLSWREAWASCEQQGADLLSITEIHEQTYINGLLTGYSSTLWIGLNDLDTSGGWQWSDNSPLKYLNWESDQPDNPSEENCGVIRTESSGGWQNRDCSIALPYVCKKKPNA
Protocol: Untreated mAbs (2h9 or aTNP), same mAbs subjected to the reduction procedure of conjugation (see above), or ADCs 2h9-vc-MMAE or aTNP-vc-MMAE, were then employed as a primary antibody, followed by a HRP-conjugated rabbit anti-mouse Ig secondary antibody. Finally an o-phenylenediamine dihydrochloride-containing substrate solution was added, and the color reaction was stopped by adding 1M H2SO4. Plates were read at 492 nm using a plate reader.

[15] = s.c., 3 mg/kg, 4 doses, of the 10 mice treated

B1: 2h9-vc-MMAE: uPARAP-directed ADC: mAb 2h9 conjugated to MC-VC-PAB-MMAE (Vedotin) linker-toxin (conjugate)
light: DIQMTQSPASQSASLGESVTITCLASQTIGTWLAWYQQKPGKSPQLLIYAATTLTDGVPSRFSGAGSGTKFSLKISSLQAEDFASYFCQEFFSTPFTFGSGTKLELKRADAAPTVSIFPPSSEQLTSGGASVVCFLNNFYPKDINVKWKIDGGERQNGVLNSWTDQDSKDSTYSMSSTLTLTKDEYERHNSYTCEATHKTSTSPIVKSFNRNEC
heavy: QVQLQQPGTELVRPGLSVKLSCKASGYTFTSYWMNWVKQRPGQGLEWIGMIHPSNDEKRINQKFKDKATLTVDKFSSTVYMQVSSPTSEDSAVYYCARGGGDYVGDYALDFWGQGTSVTVSSAKTTPPSVYPLAPGSAAQTNSMVTLGCLVKGYFPEPVTVTWNSGSLSSGVHTFPAVLQSDLYTLSSSVTVPSSTWPSETVTCNVAHPASSTKVDKKIVPRDCGCKPCICTVPEVSSVFIFPPKPKDVLTITLTPKVTCVVVDISKDDPEVQFSWFVDDVEVHTAQTQPREEQFNSTFRSVSELPIMHQDWLNGKEFKCRVNSAAFPAPIEKTISKTKGRPKAPQVYTIPPPKEQMAKDKVSLTCMITDFFPEDITVEWQWNGQPAENYKNTQPIMDTDGSYFIYSKLNVQKSNWEAGNTFTCSVLHEGLHNHHTEKSLSHSPGK
**Q.** Which results are given for B1?
**A.** Cell viability / sensitivity of glioblastoma explant cells [1]: very strong and specific sensitivity; also recorded: high degree of specific sensitivity; Overall cell viability (U937 cells [2]): most sensitive cell line tested; also recorded: specific reduction in overall cell viability; Overall cell viability (HT1080 cells [3]): specific reduction in overall viability; Overall cell viability (THP-1 cells [4]): specific reduction in overall viability; Overall cell viability [5]: remains unaffected; Overall cell viability (KNS42 cells [6]): specific reduction in overall viability; Tumour growth (U937 xenograft tumour [7]; s.c. near the tumour, 3 mg/kg mAb component, 4 doses every 4 days): drastic decrease in tumour growth; Permanent cure rate (U937 xenograft tumour [7]; s.c., 3 mg/kg mAb component, 4 doses every 4 days, N=10): 50%; Mice free from tumour growth for a period of 90 days (U937 xenograft tumour [7]; [15]): 5 mice; Mice with almost immediate relapse of tumour growth following treatment (U937 xenograft tumour [7]; [15]): 5 mice; Cell cycle distribution (U937 cells [8]): shift in cell cycle distribution towards the Sub-G1 and G2/M phases; Cell cycle distribution (HT1080 cells [9]): shift in cell cycle distribution towards the Sub-G1 and G2/M phases; Cell cycle distribution (THP-1 cells [10]): shift in cell cycle distribution towards the Sub-G1 and G2/M phases; Cell cycle distribution (KNS42 cells [11]): shift in cell cycle distribution towards the Sub-G1 and G2/M phases; Linker cleavage by cathepsin B (gel mobility) [12]: reverts ADC gel mobility back to that of unmodified targeting antibody; Tumour burden (U937 xenograft tumour [13]; i.v. tail vein, 5 mg/kg mAb component, 3 doses every 4 days, all 10 mice): complete abrogation of the tumour burden; Permanent cure rate (U937 xenograft tumour [13]; i.v., 5 mg/kg mAb component, 3 doses every 4 days, N=10): 100%; Adverse / detrimental effects on treated mice (U937 xenograft tumour [13]; regular inspection of the treated mice, antibody cross-reactive with murine uPARAP): without any evident adverse effects; also recorded: no signs of detrimental effects were seen; Affinity towards uPARAP following conjugation procedure [14]: retained affinity
